The source of these data is paper PMC8269367, “DNA G-Quadruplexes Contribute to CTCF Recruitment”.

Data set [1] has as its target T1, HMGN1 (Homo sapiens, UniProt P05114 1-100).
T1 sequence: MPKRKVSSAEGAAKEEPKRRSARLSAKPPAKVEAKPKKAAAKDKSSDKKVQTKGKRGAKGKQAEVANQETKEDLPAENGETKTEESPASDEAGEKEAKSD
The data set is described as follows: MST; MST, 50 nM labelled protein, 0.61 nM-20 uM oligo, 140 mM potassium phosphate pH 7.2 (6.7 for i-motif N1-3; CTCF oligo CD at pH 6.7), 10 mM NaCl in oligo stocks, 22 C. Conditions: protein: commercial; tags: His; parallel G4, partly intermolecular.

Data set [2] has as its target T1, HMGN1. The data set is described as follows: MST; positive control; MST, 50 nM labelled protein, 0.61 nM-20 uM oligo, 140 mM potassium phosphate pH 7.2 (6.7 for i-motif N1-3; CTCF oligo CD at pH 6.7), 10 mM NaCl in oligo stocks, 22 C. Conditions: protein: commercial; tags: His; parallel G4.
The target of the next data set is T2, HMGB2 (Homo sapiens, UniProt P26583 1-209).
T2 sequence: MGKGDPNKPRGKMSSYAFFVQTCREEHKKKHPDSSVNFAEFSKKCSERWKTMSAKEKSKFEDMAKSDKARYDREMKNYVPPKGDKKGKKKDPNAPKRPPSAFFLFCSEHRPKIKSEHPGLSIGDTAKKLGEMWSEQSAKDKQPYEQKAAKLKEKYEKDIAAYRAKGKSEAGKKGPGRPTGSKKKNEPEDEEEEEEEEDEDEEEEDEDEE
The data set is described as follows: MST; MST, 50 nM labelled protein, 0.61 nM-20 uM oligo, 140 mM potassium phosphate pH 7.2 (6.7 for i-motif N1-3; CTCF oligo CD at pH 6.7), 10 mM NaCl in oligo stocks, 22 C. The following applies: protein: commercial; tags: His; mixed-topology G4.

B1: N1C-3 (N1-C3) (structured_DNA)
DNA: GGGGAGGGGGAGGGGGGAGGGAGGGGAGG
Broadly, the Kd is the constant that tells how readily two partners part at equilibrium. As for B1, the Kd in the data set with HMGN1 [1] stood at 0.2 ± 0.1 µM.

B2: CT1 (G4-2) (structured_DNA)
DNA: GGTGACAGGGGTATGGGGAGGGG
Turning to B2, the Kd with HMGN1 [2] worked out at 1.6 ± 0.3 µM.

B3: B2-M7 (structured_DNA)
DNA: GGGCCCTGGGAACGGGGAGGG
In the data set with HMGB2, B3 came in with a Kd of 1.6 ± 0.6 µM.

B4: B2-M6 (structured_DNA)
DNA: GGGAGAGGGAGAGGGAGAGGG
In the case of B4, the affinity with HMGB2, expressed as Kd, was 4 ± 2 µM.
